Starred links: 1 amine or outer side, 2 acyl side, 3 side chain; linkers in the order of their positions; H or OH if unused. Non-standard residues stand in square brackets, D forms with d. Primed or numbered codes have the meaning given here. *: point of attachment. AC4Abu = α-carboxy-4-aminobutyric acid, O=C(C(CCN[*:1])C(=O)[*:3])[*:2]; Oic = O=C(O)[C@@H]1C[C@@H]2CCCC[C@@H]2N1; Phe(4-Cl) = N[C@@H](Cc1ccc(Cl)cc1)C(=O)O; γGlu = O=C(O)[C@H](CCC(=O)[*:2])N[*:1]; NMeR = CN[C@@H](CCCNC(=N)N)C(=O)O; Tridecanoyl = CCCCCCCCCCCCC(=O)*; Cha = N[C@@H](CC1CCCCC1)C(=O)O; Tle = CC(C)(C)[C@H](N)C(=O)O; αMeP = C[C@@]1(C(=O)O)CCCN1; β3hP = O=C(O)C[C@@H]1CCCN1; Nle = CCCC[C@H](N)C(=O)O; Pip′ = not defined here; Deg = CCC(N)(CC)C(=O)O; AEEA = NCCOCCOCC(=O)O; Aib = CC(C)(N)C(=O)O

To fix the notation:
T1: human APJ receptor (human, UniProt P35414 1-380)
T1 sequence (looked up): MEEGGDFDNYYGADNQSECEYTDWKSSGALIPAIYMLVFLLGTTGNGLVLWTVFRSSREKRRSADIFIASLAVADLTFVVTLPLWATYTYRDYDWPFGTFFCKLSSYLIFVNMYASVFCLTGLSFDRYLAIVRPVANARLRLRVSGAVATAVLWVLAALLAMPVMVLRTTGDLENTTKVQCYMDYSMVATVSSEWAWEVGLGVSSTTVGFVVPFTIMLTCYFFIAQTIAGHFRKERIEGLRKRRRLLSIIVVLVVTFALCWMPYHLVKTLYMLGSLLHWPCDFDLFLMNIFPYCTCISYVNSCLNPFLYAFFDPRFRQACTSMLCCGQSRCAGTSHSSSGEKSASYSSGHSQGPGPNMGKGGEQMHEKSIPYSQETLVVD

T2: rat APJ receptor (rat, UniProt Q9JHG3 1-377)
T2 sequence (looked up): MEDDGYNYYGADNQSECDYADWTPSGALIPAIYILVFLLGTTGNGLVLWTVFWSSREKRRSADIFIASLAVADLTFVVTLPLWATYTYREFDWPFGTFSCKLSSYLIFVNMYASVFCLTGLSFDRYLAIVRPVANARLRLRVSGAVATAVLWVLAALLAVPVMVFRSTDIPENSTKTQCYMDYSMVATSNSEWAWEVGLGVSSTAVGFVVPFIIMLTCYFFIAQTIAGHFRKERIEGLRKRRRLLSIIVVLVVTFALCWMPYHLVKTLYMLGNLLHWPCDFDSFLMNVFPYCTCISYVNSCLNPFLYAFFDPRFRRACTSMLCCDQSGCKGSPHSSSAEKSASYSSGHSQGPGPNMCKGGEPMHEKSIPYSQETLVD

B1: Apelin polypeptide SEQ ID NO: 437 (peptide)
peptide: Tridecanoyl-[γGlu][AEEA][AEEA]QRP[NMeR][Cha]SVKG[Oic][Nle]P[Phe(4-Cl)]-OH
SMILES: CCCCCCCCCCCCC(=O)N[C@@H](CCC(=O)NCCOCCOCC(=O)NCCOCCOCC(=O)N[C@@H](CCC(N)=O)C(=O)N[C@@H](CCCNC(=N)N)C(=O)N1CCC[C@H]1C(=O)N(C)[C@@H](CCCNC(=N)N)C(=O)N[C@@H](CC1CCCCC1)C(=O)N[C@@H](CO)C(=O)N[C@H](C(=O)N[C@@H](CCCCN)C(=O)NCC(=O)N1[C@H](C(=O)N[C@@H](CCCC)C(=O)N2CCC[C@H]2C(=O)N[C@@H](Cc2ccc(Cl)cc2)C(=O)O)C[C@@H]2CCCC[C@@H]21)C(C)C)C(=O)O
B2: Apelin polypeptide SEQ ID NO: 549 (peptide)
peptide: Tridecanoyl-[γGlu][AEEA][AEEA][dQ]RP[NMeR][Cha]SHKG[Oic][Nle][Deg][Phe(4-Cl)]-OH
SMILES: CCCCCCCCCCCCC(=O)N[C@@H](CCC(=O)NCCOCCOCC(=O)NCCOCCOCC(=O)N[C@H](CCC(N)=O)C(=O)N[C@@H](CCCNC(=N)N)C(=O)N1CCC[C@H]1C(=O)N(C)[C@@H](CCCNC(=N)N)C(=O)N[C@@H](CC1CCCCC1)C(=O)N[C@@H](CO)C(=O)N[C@@H](Cc1c[nH]cn1)C(=O)N[C@@H](CCCCN)C(=O)NCC(=O)N1[C@H](C(=O)N[C@@H](CCCC)C(=O)NC(CC)(CC)C(=O)N[C@@H](Cc2ccc(Cl)cc2)C(=O)O)C[C@@H]2CCCC[C@@H]21)C(=O)O
B3: Apelin polypeptide SEQ ID NO: 413 (peptide)
peptide: Tridecanoyl-[AC4Abu][AEEA][AEEA]QRP[NMeR][Cha]SHKG[Oic][Tle]P[Phe(4-Cl)]-OH
SMILES: CCCCCCCCCCCCC(=O)NCCC(C(=O)O)C(=O)NCCOCCOCC(=O)NCCOCCOCC(=O)N[C@@H](CCC(N)=O)C(=O)N[C@@H](CCCNC(=N)N)C(=O)N1CCC[C@H]1C(=O)N(C)[C@@H](CCCNC(=N)N)C(=O)N[C@@H](CC1CCCCC1)C(=O)N[C@@H](CO)C(=O)N[C@@H](Cc1c[nH]cn1)C(=O)N[C@@H](CCCCN)C(=O)NCC(=O)N1[C@H](C(=O)N[C@H](C(=O)N2CCC[C@H]2C(=O)N[C@@H](Cc2ccc(Cl)cc2)C(=O)O)C(C)(C)C)C[C@@H]2CCCC[C@@H]21
B4: Apelin polypeptide SEQ ID NO: 487 (peptide)
peptide: Tridecanoyl-[γGlu][AEEA][AEEA]QRP[NMeR][Cha]SHKG[Oic][Nle][β3hP][Phe(4-Cl)]-OH
SMILES: CCCCCCCCCCCCC(=O)N[C@@H](CCC(=O)NCCOCCOCC(=O)NCCOCCOCC(=O)N[C@@H](CCC(N)=O)C(=O)N[C@@H](CCCNC(=N)N)C(=O)N1CCC[C@H]1C(=O)N(C)[C@@H](CCCNC(=N)N)C(=O)N[C@@H](CC1CCCCC1)C(=O)N[C@@H](CO)C(=O)N[C@@H](Cc1c[nH]cn1)C(=O)N[C@@H](CCCCN)C(=O)NCC(=O)N1[C@H](C(=O)N[C@@H](CCCC)C(=O)N2CCC[C@H]2CC(=O)N[C@@H](Cc2ccc(Cl)cc2)C(=O)O)C[C@@H]2CCCC[C@@H]21)C(=O)O
B5: Apelin polypeptide SEQ ID NO: 531 (peptide)
peptide: Tridecanoyl-[γGlu][AEEA][AEEA][dQ]RP[NMeR][Cha]SYKG[Oic][Nle][Aib][Phe(4-Cl)]-OH
SMILES: CCCCCCCCCCCCC(=O)N[C@@H](CCC(=O)NCCOCCOCC(=O)NCCOCCOCC(=O)N[C@H](CCC(N)=O)C(=O)N[C@@H](CCCNC(=N)N)C(=O)N1CCC[C@H]1C(=O)N(C)[C@@H](CCCNC(=N)N)C(=O)N[C@@H](CC1CCCCC1)C(=O)N[C@@H](CO)C(=O)N[C@@H](Cc1ccc(O)cc1)C(=O)N[C@@H](CCCCN)C(=O)NCC(=O)N1[C@H](C(=O)N[C@@H](CCCC)C(=O)NC(C)(C)C(=O)N[C@@H](Cc2ccc(Cl)cc2)C(=O)O)C[C@@H]2CCCC[C@@H]21)C(=O)O
B6: Apelin polypeptide SEQ ID NO: 541 (peptide)
peptide: Tridecanoyl-[γGlu][AEEA][AEEA][dQ]RP[NMeR][Cha]SHKG[Oic][Nle][αMeP][Phe(4-Cl)]-OH
SMILES: CCCCCCCCCCCCC(=O)N[C@@H](CCC(=O)NCCOCCOCC(=O)NCCOCCOCC(=O)N[C@H](CCC(N)=O)C(=O)N[C@@H](CCCNC(=N)N)C(=O)N1CCC[C@H]1C(=O)N(C)[C@@H](CCCNC(=N)N)C(=O)N[C@@H](CC1CCCCC1)C(=O)N[C@@H](CO)C(=O)N[C@@H](Cc1c[nH]cn1)C(=O)N[C@@H](CCCCN)C(=O)NCC(=O)N1[C@H](C(=O)N[C@@H](CCCC)C(=O)N2CCC[C@@]2(C)C(=O)N[C@@H](Cc2ccc(Cl)cc2)C(=O)O)C[C@@H]2CCCC[C@@H]21)C(=O)O
B7: Apelin polypeptide SEQ ID NO: 542 (peptide)
peptide: Tridecanoyl-[γGlu][AEEA][AEEA][dQ]RP[NMeR][Cha]SHKG[Oic][Nle][β3hP][Phe(4-Cl)]-OH
SMILES: CCCCCCCCCCCCC(=O)N[C@@H](CCC(=O)NCCOCCOCC(=O)NCCOCCOCC(=O)N[C@H](CCC(N)=O)C(=O)N[C@@H](CCCNC(=N)N)C(=O)N1CCC[C@H]1C(=O)N(C)[C@@H](CCCNC(=N)N)C(=O)N[C@@H](CC1CCCCC1)C(=O)N[C@@H](CO)C(=O)N[C@@H](Cc1c[nH]cn1)C(=O)N[C@@H](CCCCN)C(=O)NCC(=O)N1[C@H](C(=O)N[C@@H](CCCC)C(=O)N2CCC[C@H]2CC(=O)N[C@@H](Cc2ccc(Cl)cc2)C(=O)O)C[C@@H]2CCCC[C@@H]21)C(=O)O
B8: Apelin polypeptide SEQ ID NO: 436 (peptide)
peptide: Tridecanoyl-[γGlu][AEEA][AEEA]QRP[NMeR][Cha]SYKG[Oic][Nle]P[Phe(4-Cl)]-OH
SMILES: CCCCCCCCCCCCC(=O)N[C@@H](CCC(=O)NCCOCCOCC(=O)NCCOCCOCC(=O)N[C@@H](CCC(N)=O)C(=O)N[C@@H](CCCNC(=N)N)C(=O)N1CCC[C@H]1C(=O)N(C)[C@@H](CCCNC(=N)N)C(=O)N[C@@H](CC1CCCCC1)C(=O)N[C@@H](CO)C(=O)N[C@@H](Cc1ccc(O)cc1)C(=O)N[C@@H](CCCCN)C(=O)NCC(=O)N1[C@H](C(=O)N[C@@H](CCCC)C(=O)N2CCC[C@H]2C(=O)N[C@@H](Cc2ccc(Cl)cc2)C(=O)O)C[C@@H]2CCCC[C@@H]21)C(=O)O
B9: Apelin polypeptide SEQ ID NO: 361 (peptide)
peptide: Tridecanoyl-[γGlu][AEEA][AEEA]QRP[NMeR][Cha]SHKGP[Nle]P[Phe(4-Cl)]-OH
SMILES: CCCCCCCCCCCCC(=O)N[C@@H](CCC(=O)NCCOCCOCC(=O)NCCOCCOCC(=O)N[C@@H](CCC(N)=O)C(=O)N[C@@H](CCCNC(=N)N)C(=O)N1CCC[C@H]1C(=O)N(C)[C@@H](CCCNC(=N)N)C(=O)N[C@@H](CC1CCCCC1)C(=O)N[C@@H](CO)C(=O)N[C@@H](Cc1c[nH]cn1)C(=O)N[C@@H](CCCCN)C(=O)NCC(=O)N1CCC[C@H]1C(=O)N[C@@H](CCCC)C(=O)N1CCC[C@H]1C(=O)N[C@@H](Cc1ccc(Cl)cc1)C(=O)O)C(=O)O

One test has as its target T1, human APJ receptor. Briefly: cell-based or functional assay.
Turning to B1, the “EC50 Human APJ Receptor (GTPγS assay)” value came out at 0.663 nM.
On the same count and under the same terms, with Tridecanoyl-[γGlu][AEEA][AEEA]QRP[NMeR][Cha]SHKG[Oic][Nle][Pip′][Phe(4-Cl)]-OH [Apelin polypeptide SEQ ID NO: 445] the figure was 4.29 nM; with B2, 1.2 nM; with B3, 1.53 nM.
Consider B4, for which the “EC50 Human APJ Receptor (GTPγS assay)” value was determined as 1.83 nM.
Turning to Tridecanoyl-[γGlu][AEEA][AEEA][dQ]RP[NMeR][Cha]SHKG[Pip′][Nle][Aib][Phe(4-Cl)]-OH [Apelin polypeptide SEQ ID NO: 499], the “EC50 Human APJ Receptor (GTPγS assay)” value came out at 0.0236 nM.
In the case of B5, the “EC50 Human APJ Receptor (GTPγS assay)” value worked out at 0.852 nM.
With B6, the “EC50 Human APJ Receptor (GTPγS assay)” value was 0.938 nM.
Still for that read-out and setting: with B7 the figure was 5.19 nM.
For B8, the “EC50 Human APJ Receptor (GTPγS assay)” value is 0.793 nM.
As for Tridecanoyl-[γGlu][AEEA][AEEA][dQ]RP[NMeR][Cha]SHKG[Pip′][Nle][β3hP][Phe(4-Cl)]-OH [Apelin polypeptide SEQ ID NO: 544], the “EC50 Human APJ Receptor (GTPγS assay)” value came to 2.42 nM.
The same measure, in the same setting: with B9 the figure was 0.308 nM.

Another test addresses T2, rat APJ receptor. Briefly: cell-based or functional assay.
Take B1: the “EC50 Rat APJ Receptor (GTPγS assay)” value came out at 0.725 nM.
Consider Tridecanoyl-[γGlu][AEEA][AEEA]QRP[NMeR][Cha]SHKG[Oic][Nle][Pip′][Phe(4-Cl)]-OH [Apelin polypeptide SEQ ID NO: 445], for which the “EC50 Rat APJ Receptor (GTPγS assay)” value was determined as 4.71 nM.
B2: the “EC50 Rat APJ Receptor (GTPγS assay)” value is 4 nM.
Take B3: the “EC50 Rat APJ Receptor (GTPγS assay)” value was found to be 1.54 nM.
On the same count and under the same terms, the value for B4 was 8.19 nM; that for Tridecanoyl-[γGlu][AEEA][AEEA][dQ]RP[NMeR][Cha]SHKG[Pip′][Nle][Aib][Phe(4-Cl)]-OH [Apelin polypeptide SEQ ID NO: 499] was 0.0852 nM.
Same read-out and setting: the value for B5 was 5.66 nM; that for B6 was 1.98 nM.
With B7, the “EC50 Rat APJ Receptor (GTPγS assay)” value turned out to be 16.1 nM.
In the case of B8, the “EC50 Rat APJ Receptor (GTPγS assay)” value was determined as 1.47 nM.
On to Tridecanoyl-[γGlu][AEEA][AEEA][dQ]RP[NMeR][Cha]SHKG[Pip′][Nle][β3hP][Phe(4-Cl)]-OH [Apelin polypeptide SEQ ID NO: 544], for which the “EC50 Rat APJ Receptor (GTPγS assay)” value amounted to 5.61 nM.
Still for that read-out and setting: the value for B9 was 0.086 nM.
